From article PMC5938748 (Molecular microbiology, 2012)
Numbering of substitutions follows the chain as printed. Values belong to the binder of their own block, whether it stands above or below them.

Tests used:
MutS = biological target: T1, MutS (Bacillus subtilis, UniProt P49849 1-858); assay: 2-aminopurine fluorescence titration
T1 sequence: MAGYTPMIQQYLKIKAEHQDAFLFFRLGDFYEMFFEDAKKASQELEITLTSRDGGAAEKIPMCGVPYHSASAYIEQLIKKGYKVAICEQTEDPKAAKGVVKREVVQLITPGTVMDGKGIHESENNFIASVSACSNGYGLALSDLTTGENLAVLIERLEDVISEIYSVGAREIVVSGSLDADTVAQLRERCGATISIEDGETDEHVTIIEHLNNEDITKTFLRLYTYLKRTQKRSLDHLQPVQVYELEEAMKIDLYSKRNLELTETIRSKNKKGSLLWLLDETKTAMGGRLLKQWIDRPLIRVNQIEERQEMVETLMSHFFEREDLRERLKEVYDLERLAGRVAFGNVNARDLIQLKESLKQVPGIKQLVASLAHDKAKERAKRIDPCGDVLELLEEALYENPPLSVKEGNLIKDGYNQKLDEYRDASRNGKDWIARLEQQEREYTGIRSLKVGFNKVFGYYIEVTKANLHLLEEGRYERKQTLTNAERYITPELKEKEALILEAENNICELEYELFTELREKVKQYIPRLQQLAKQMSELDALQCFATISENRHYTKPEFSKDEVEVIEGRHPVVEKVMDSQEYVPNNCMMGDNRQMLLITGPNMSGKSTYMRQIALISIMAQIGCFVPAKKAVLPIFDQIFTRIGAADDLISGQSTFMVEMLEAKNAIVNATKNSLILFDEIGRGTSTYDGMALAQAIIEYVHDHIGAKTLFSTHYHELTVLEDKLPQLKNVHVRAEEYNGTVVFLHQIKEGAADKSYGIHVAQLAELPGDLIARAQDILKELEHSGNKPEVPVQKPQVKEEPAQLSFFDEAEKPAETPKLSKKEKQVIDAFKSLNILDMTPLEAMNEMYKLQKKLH

[1] = biological target: T2, Bacillus subtilis MutSF30A (B. subtilis, UniProt P49849 1-858, F30A); assay: far-Western, overlay or dot blot
T2 sequence (looked up): T1 sequence with F30A

Bacillus subtilis MutS = biological target: T3, Bacillus subtilis MutS (B. subtilis, UniProt P49849 1-858); assay: far-Western, overlay or dot blot
T3 sequence (looked up): T1 sequence

B1: 2-AP(+T) T-bulge duplex (dsDNA)
DNA 1: TAAAGGAAGTCGTCTATATATGGTATGACTAAGTGTA
DNA 2: TACACTTAGTCATACCATTATAGACGACTTCCTTTA
modifications: 2-aminopurine at position 18 of strand 1 (written as A)
- Kd (MutS): 24 nM

- binding result [1]: binds
- binding result (Bacillus subtilis MutS): binds
B2: Bacillus subtilis processivity clamp DnaN (natural protein, B. subtilis, UniProt P05649 1-378, looked up)
chain: MKFTIQKDRLVESVQDVLKAVSSRTTIPILTGIKIVASDDGVSFTGSDSDISIESFIPKEEGDKEIVTIEQPGSIVLQARFFSEIVKKLPMATVEIEVQNQYLTIIRSGKAEFNLNGLDADEYPHLPQIEEHHAIQIPTDLLKNLIRQTVFAVSTSETRPILTGVNWKVEQSELLCTATDSHRLALRKAKLDIPEDRSYNVVIPGKSLTELSKILDDNQELVDIVITETQVLFKAKNVLFFSRLLDGNYPDTTSLIPQDSKTEIIVNTKEFLQAIDRASLLAREGRNNVVKLSAKPAESIEISSNSPEIGKVVEAIVADQIEGEELNISFSPKYMLDALKVLEGAEIRVSFTGAMRPFLIRTPNDETIVQLILPVRTY
